Data: paper PMC9603430, “Folding Mechanism and Aggregation Propensity of the KH0 Domain of FMRP and Its R138Q Pathological Variant” (International Journal of Molecular Sciences, 2022)

Target: the molecule itself
Assay: thioflavin T fluorescence; 20 μM protein pre-incubated at 70 °C for 10 min, stoichiometric ThT, 20 mM sodium phosphate pH 7.2, 100 mM NaCl; self-association into fibrillar aggregates

B1: KH0 domain of FMRP, R138Q pathological variant, res 122-205 (domain or fragment)
chain: not shown
notes: KH0 domain of human FMRP, residues 122-205, Uniprot Q06787, with the missense mutation R138Q found in FXS patients; Made by site-directed mutagenesis of the KH0 construct; the histidine tag was removed by thrombin for the fibrillation/aggregation experiments; also called KH0-R138Q; variant protein; source: E. coli BL-21 (DE3), purified (HisTrap FF, thrombin cleavage, Superdex75 size exclusion)
B1: binds.
